We go through 84 substances from the Human Domainome abundance scans (Beltran et al. 2025).

± gives the uncertainty stated by the source.

This data set can be described thus: abundance fitness (aPCA) (normalised: wild type 0, dead -1); higher = more abundant; growth selection in yeast, the domain comes from the species named. Conditions: Homo sapiens.
Substance “E3 ubiquitin-protein ligase NEDD4-like N216D, Q96PU5” came in with an abundance fitness of -0.142 ± 0.085.

In turn, “E3 ubiquitin-protein ligase NEDD4-like N216E, Q96PU5” showed an abundance fitness of -0.188 ± 0.076.

As for “E3 ubiquitin-protein ligase NEDD4-like N216F, Q96PU5”, the abundance fitness came out at 0.052 ± 0.091.

On to “E3 ubiquitin-protein ligase NEDD4-like N216G, Q96PU5”, for which the abundance fitness turned out to be 0.127 ± 0.052.

On to “E3 ubiquitin-protein ligase NEDD4-like N216I, Q96PU5”, for which the abundance fitness was determined as 0.014 ± 0.079.

In turn, “E3 ubiquitin-protein ligase NEDD4-like N216L, Q96PU5” yielded an abundance fitness of -0.001 ± 0.056.

Consider “E3 ubiquitin-protein ligase NEDD4-like N216M, Q96PU5”, for which the abundance fitness was 0.18 ± 0.094.

Take “E3 ubiquitin-protein ligase NEDD4-like N216P, Q96PU5”: the abundance fitness was -0.147 ± 0.089.

In turn, “E3 ubiquitin-protein ligase NEDD4-like N216Q, Q96PU5” came in with an abundance fitness of -0.343 ± 0.1.

With “E3 ubiquitin-protein ligase NEDD4-like N216R, Q96PU5”, the abundance fitness is -0.239 ± 0.065.

With “E3 ubiquitin-protein ligase NEDD4-like N216S, Q96PU5”, the abundance fitness is 0.065 ± 0.058.

“E3 ubiquitin-protein ligase NEDD4-like N216T, Q96PU5” had an abundance fitness of 0.127 ± 0.086.

“E3 ubiquitin-protein ligase NEDD4-like N216V, Q96PU5” displayed an abundance fitness of -0.151 ± 0.056.

For the substance “E3 ubiquitin-protein ligase NEDD4-like N216W, Q96PU5”, the abundance fitness was 0.029 ± 0.062.

As to “E3 ubiquitin-protein ligase NEDD4-like P191A, Q96PU5”, the abundance fitness is -0.044 ± 0.07.

“E3 ubiquitin-protein ligase NEDD4-like P191C, Q96PU5” yielded an abundance fitness of -0.155 ± 0.087.

In turn, “E3 ubiquitin-protein ligase NEDD4-like P191D, Q96PU5” yielded an abundance fitness of -0.086 ± 0.11.

Take “E3 ubiquitin-protein ligase NEDD4-like P191E, Q96PU5”: the abundance fitness is -0.086 ± 0.07.

“E3 ubiquitin-protein ligase NEDD4-like P191F, Q96PU5” showed an abundance fitness of -0.326 ± 0.12.

The substance “E3 ubiquitin-protein ligase NEDD4-like P191G, Q96PU5” returned an abundance fitness of -0.118 ± 0.054.

For “E3 ubiquitin-protein ligase NEDD4-like P191H, Q96PU5”, the abundance fitness is -0.072 ± 0.073.

Consider “E3 ubiquitin-protein ligase NEDD4-like P191I, Q96PU5”, for which the abundance fitness came out at 0.152 ± 0.12.

For “E3 ubiquitin-protein ligase NEDD4-like P191K, Q96PU5”, the abundance fitness was found to be 0.024 ± 0.076.

Turning to “E3 ubiquitin-protein ligase NEDD4-like P191M, Q96PU5”, the abundance fitness is -0.378 ± 0.057.

Take “E3 ubiquitin-protein ligase NEDD4-like P191N, Q96PU5”: the abundance fitness was determined as 0.051 ± 0.064.

Substance “E3 ubiquitin-protein ligase NEDD4-like P191Q, Q96PU5” returned an abundance fitness of 0.024 ± 0.074.

“E3 ubiquitin-protein ligase NEDD4-like P191R, Q96PU5” gave an abundance fitness of -0.167 ± 0.061.

The substance “E3 ubiquitin-protein ligase NEDD4-like P191S, Q96PU5” registered an abundance fitness of 0.037 ± 0.069.

With “E3 ubiquitin-protein ligase NEDD4-like P191T, Q96PU5”, the abundance fitness was 0.125 ± 0.077.

Consider “E3 ubiquitin-protein ligase NEDD4-like P191V, Q96PU5”, for which the abundance fitness was -0.028 ± 0.058.

“E3 ubiquitin-protein ligase NEDD4-like P191W, Q96PU5” showed an abundance fitness of -0.378 ± 0.058.

Regarding “E3 ubiquitin-protein ligase NEDD4-like P191Y, Q96PU5”, the abundance fitness is -0.432 ± 0.14.

With “E3 ubiquitin-protein ligase NEDD4-like P192A, Q96PU5”, the abundance fitness is -0.021 ± 0.078.

For “E3 ubiquitin-protein ligase NEDD4-like P192D, Q96PU5”, the abundance fitness is -0.173 ± 0.063.

Consider “E3 ubiquitin-protein ligase NEDD4-like P192E, Q96PU5”, for which the abundance fitness was -0.369 ± 0.079.

Take “E3 ubiquitin-protein ligase NEDD4-like P192F, Q96PU5”: the abundance fitness was -0.296 ± 0.075.

Regarding “E3 ubiquitin-protein ligase NEDD4-like P192G, Q96PU5”, the abundance fitness is -0.064 ± 0.06.

Consider “E3 ubiquitin-protein ligase NEDD4-like P192H, Q96PU5”, for which the abundance fitness was -0.1 ± 0.071.

“E3 ubiquitin-protein ligase NEDD4-like P192I, Q96PU5” registered an abundance fitness of -0.269 ± 0.1.

For “E3 ubiquitin-protein ligase NEDD4-like P192K, Q96PU5”, the abundance fitness was -0.086 ± 0.095.

Take “E3 ubiquitin-protein ligase NEDD4-like P192L, Q96PU5”: the abundance fitness was -0.173 ± 0.072.

Turning to “E3 ubiquitin-protein ligase NEDD4-like P192M, Q96PU5”, the abundance fitness was 0.094 ± 0.082.

The substance “E3 ubiquitin-protein ligase NEDD4-like P192N, Q96PU5” came in with an abundance fitness of -0.014 ± 0.059.

In turn, “E3 ubiquitin-protein ligase NEDD4-like P192Q, Q96PU5” came in with an abundance fitness of 0.02 ± 0.076.

Substance “E3 ubiquitin-protein ligase NEDD4-like P192R, Q96PU5” registered an abundance fitness of 0.012 ± 0.055.

For the substance “E3 ubiquitin-protein ligase NEDD4-like P192S, Q96PU5”, the abundance fitness is -0.201 ± 0.082.

Substance “E3 ubiquitin-protein ligase NEDD4-like P192W, Q96PU5” had an abundance fitness of -0.484 ± 0.072.

In turn, “E3 ubiquitin-protein ligase NEDD4-like P192Y, Q96PU5” gave an abundance fitness of -0.31 ± 0.068.

For “E3 ubiquitin-protein ligase NEDD4-like P193A, Q96PU5”, the abundance fitness was -0.12 ± 0.068.

For “E3 ubiquitin-protein ligase NEDD4-like P193C, Q96PU5”, the abundance fitness came out at 0.042 ± 0.095.

Consider “E3 ubiquitin-protein ligase NEDD4-like P193D, Q96PU5”, for which the abundance fitness is -0.131 ± 0.076.

“E3 ubiquitin-protein ligase NEDD4-like P193E, Q96PU5” gave an abundance fitness of -0.07 ± 0.087.

The substance “E3 ubiquitin-protein ligase NEDD4-like P193F, Q96PU5” registered an abundance fitness of -0.339 ± 0.11.

Substance “E3 ubiquitin-protein ligase NEDD4-like P193G, Q96PU5” yielded an abundance fitness of -0.086 ± 0.058.

In turn, “E3 ubiquitin-protein ligase NEDD4-like P193H, Q96PU5” gave an abundance fitness of -0.058 ± 0.11.

“E3 ubiquitin-protein ligase NEDD4-like P193I, Q96PU5” had an abundance fitness of -0.079 ± 0.052.

The substance “E3 ubiquitin-protein ligase NEDD4-like P193K, Q96PU5” displayed an abundance fitness of -0.033 ± 0.069.

In turn, “E3 ubiquitin-protein ligase NEDD4-like P193L, Q96PU5” registered an abundance fitness of -0.103 ± 0.055.

Take “E3 ubiquitin-protein ligase NEDD4-like P193N, Q96PU5”: the abundance fitness is -0.25 ± 0.11.

“E3 ubiquitin-protein ligase NEDD4-like P193Q, Q96PU5” had an abundance fitness of -0.21 ± 0.098.

The substance “E3 ubiquitin-protein ligase NEDD4-like P193R, Q96PU5” had an abundance fitness of 0.025 ± 0.055.

The substance “E3 ubiquitin-protein ligase NEDD4-like P193S, Q96PU5” gave an abundance fitness of -0.042 ± 0.063.

For the substance “E3 ubiquitin-protein ligase NEDD4-like P193T, Q96PU5”, the abundance fitness is -0.177 ± 0.075.

Take “E3 ubiquitin-protein ligase NEDD4-like P193V, Q96PU5”: the abundance fitness is -0.003 ± 0.054.

With “E3 ubiquitin-protein ligase NEDD4-like P193W, Q96PU5”, the abundance fitness was -0.359 ± 0.067.

For the substance “E3 ubiquitin-protein ligase NEDD4-like P193Y, Q96PU5”, the abundance fitness was -0.057 ± 0.062.

“E3 ubiquitin-protein ligase NEDD4-like P194A, Q96PU5”: the abundance fitness is -0.057 ± 0.066.

Consider “E3 ubiquitin-protein ligase NEDD4-like P194C, Q96PU5”, for which the abundance fitness was -0.147 ± 0.076.

“E3 ubiquitin-protein ligase NEDD4-like P194D, Q96PU5” gave an abundance fitness of -0.008 ± 0.09.

With “E3 ubiquitin-protein ligase NEDD4-like P194E, Q96PU5”, the abundance fitness was -0.103 ± 0.072.

The substance “E3 ubiquitin-protein ligase NEDD4-like P194F, Q96PU5” registered an abundance fitness of -0.443 ± 0.084.

In turn, “E3 ubiquitin-protein ligase NEDD4-like P194G, Q96PU5” came in with an abundance fitness of -0.05 ± 0.059.

Regarding “E3 ubiquitin-protein ligase NEDD4-like P194H, Q96PU5”, the abundance fitness is -0.094 ± 0.073.

In the case of “E3 ubiquitin-protein ligase NEDD4-like P194I, Q96PU5”, the abundance fitness is -0.294 ± 0.1.

For the substance “E3 ubiquitin-protein ligase NEDD4-like P194K, Q96PU5”, the abundance fitness amounted to 0.071 ± 0.063.

In turn, “E3 ubiquitin-protein ligase NEDD4-like P194L, Q96PU5” came in with an abundance fitness of -0.094 ± 0.054.

As to “E3 ubiquitin-protein ligase NEDD4-like P194M, Q96PU5”, the abundance fitness worked out at 0.013 ± 0.072.

Substance “E3 ubiquitin-protein ligase NEDD4-like P194N, Q96PU5” registered an abundance fitness of -0.304 ± 0.11.

“E3 ubiquitin-protein ligase NEDD4-like P194Q, Q96PU5” yielded an abundance fitness of 0.061 ± 0.079.

In turn, “E3 ubiquitin-protein ligase NEDD4-like P194R, Q96PU5” had an abundance fitness of 0.048 ± 0.065.

On to “E3 ubiquitin-protein ligase NEDD4-like P194S, Q96PU5”, for which the abundance fitness was -0.06 ± 0.065.

As to “E3 ubiquitin-protein ligase NEDD4-like P194T, Q96PU5”, the abundance fitness is -0.107 ± 0.07.

For the substance “E3 ubiquitin-protein ligase NEDD4-like P194V, Q96PU5”, the abundance fitness was -0.002 ± 0.058.

For the substance “E3 ubiquitin-protein ligase NEDD4-like P194W, Q96PU5”, the abundance fitness was -0.327 ± 0.076.
